In patent publication US20230227584A1 (published 2023):
Changes are numbered by the printed parent chain.

T1: human OX40 on the cell surface (activated human T cells; HeLa_hOx40_NFkB_Luc1 reporter cells) (human, UniProt P43489 29-277)
T1 sequence: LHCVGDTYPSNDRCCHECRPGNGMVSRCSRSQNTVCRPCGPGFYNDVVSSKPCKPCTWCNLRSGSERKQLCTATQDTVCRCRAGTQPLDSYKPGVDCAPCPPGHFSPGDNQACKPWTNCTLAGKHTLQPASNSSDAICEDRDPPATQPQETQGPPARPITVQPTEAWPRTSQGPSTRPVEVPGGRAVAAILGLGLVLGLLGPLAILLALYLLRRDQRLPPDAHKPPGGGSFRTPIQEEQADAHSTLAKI

B1: P1AG1036 GITR(852.2) x FAP (4B9_EPKSCS) (2+1) C-terminal crossfab fusion (bispecific antibody, human IgG1, kappa, L234A L235A)
heavy 1: not shown
heavy 2: EVQLVESGGGLVQPGGSLRLSCAASGFTFSSYTMKWVRQTPGKGLEWVSVISADGGTTDHAASVKGRFTVSRDNSKNMLYLQMNSLRAEDTAIYYCAKDRANDWITGASFDYWGQGALVTVSSASTKGPSVFPLAPSSKSTSGGTAALGCLVEDYFPEPVTVSWNSGALTSGVHTFPAVLQSSGLYSLSSVVTVPSSSLGTQTYICNVNHKPSNTKVDEKVEPKSCDKTHTCPPCPAPEAAGGPSVFLFPPKPKDTLMISRTPEVTCVVVDVSHEDPEVKFNWYVDGVEVHNAKTKPREEQYNSTYRVVSVLTVLHQDWLNGKEYKCKVSNKALGAPIEKTISKAKGQPREPQVCTLPPSRDELTKNQVSLSCAVKGFYPSDIAVEWESNGQPENNYKTTPPVLDSDGSFFLVSKLTVDKSRWQQGNVFSCSVMHEALHNHYTQKSLSLSP
light 1: DIQMTQSPSSLSASVGDRVTITCRASQSINSYLNWYQQKPGNAPKLLIYAASSLQSGVPSRFSGSGSGTEFTLTISSLQPEDLATYYCQQARSFPLTFGGGTKVEIKRTVAAPSVFIFPPSDRKLKSGTASVVCLLNNFYPREAKVQWKVDNALQSGNSQESVTEQDSKDSTYSLSSTLTLSKADYEKHKVYACEVTHQGLSSPVTKSFNRGEC
light 2: EIVLTQSPGTLSLSPGERATLSCRASQSVTSSYLAWYQQKPGQAPRLLINVGSRRATGIPDRFSGSGSGTDFTLTISRLEPEDFAVYYCQQGIMLPPTFGQGTKVEIKSSASTKGPSVFPLAPSSKSTSGGTAALGCLVKDYFPEPVTVSWNSGALTSGVHTFPAVLQSSGLYSLSSVVTVPSSSLGTQTYICNVNHKPSNTKVDKKVEPKSCS
notes: 2+1 format; Human IgG1 Fc, knob-into-hole, PGLALA; VL-CH1 chain ends in EPKSCS
B2: P1AG1039 GITR(852.2) x FAP (4B9_EPKSCG) (2+1) C-terminal crossfab fusion (bispecific antibody, human IgG1, kappa, L234A L235A)
heavy 1: not shown
heavy 2: B1 heavy 2
light 1: B1 light 1
light 2: B1 light 2 with S214G
notes: 2+1 format; Human IgG1 Fc, knob-into-hole, PGLALA; VL-CH1 chain ends in EPKSCG
B3: P1AF6455 OX40(CLC563) x FAP(1G1a_EPKSCS) 3+1 (bispecific antibody, human IgG1, kappa, L234A L235A)
heavy 1: not shown
heavy 2: not shown
light 1: not shown
light 2: EIVLTQSPATLSLSPGERATLSCRASESVDNYGLSFINWFQQKPGQAPRLLIYGTSNRGSGIPARFSGSGSGTDFTLTISSLEPEDFAVYFCQQSNEVPYTFGGGTKVEIKSSASTKGPSVFPLAPSSKSTSGGTAALGCLVKDYFPEPVTVSWNSGALTSGVHTFPAVLQSSGLYSLSSVVTVPSSSLGTQTYICNVNHKPSNTKVDKKVEPKSCS
notes: Human IgG1 Fc, knob-into-hole, PGLALA; also called CLC-563, S-variant 3+1
B4: P1AF6454 OX40 (CLC563) x FAP (1G1a_EPKSCD) (3+1) C-terminal crossfab fusion (bispecific antibody, human IgG1, kappa, L234A L235A)
heavy 1: not shown
heavy 2: not shown
light 1: not shown
light 2: B3 light 2 with S217D
notes: 3+1 format; Human IgG1 Fc, knob-into-hole, PGLALA; VL-CH1 chain ends in EPKSCD; also called CLC-563, D-variant 3+1; 3+1 CLC563/H212-D

Key:
[1] = biological target: human FAP (soluble second analyte, SPR) (human, UniProt Q12884 26-760); test: SPR (Biacore T200), biotinylated human GITR Fc(kih) on SA chip, bispecific at 200 nM, then human FAP at 500 nM
Protocol: The capacity of binding simultaneously human GITR Fc(kih) and human FAP can be assessed by surface plasmon resonance (SPR). All SPR experiments are performed on a Biacore T200 at 25° C. with HBS-EP as running buffer (0.01 M HEPES pH 7.4, 0.15 M NaCl, 3 mM EDTA, 0.005% Surfactant P20, Biacore, Freiburg/Germany). […] Immobilization levels up to 1000 resonance units (RU) are used. The bispecific antibodies targeting GITR and FAP are passed at a concentration range of 200 nM with a flow of 30 µL/minute through the flow cells over 90 seconds and dissociation was set to zero sec. Human FAP is injected as second analyte with a flow of 30 µL/minute through the flow cells over 90 seconds at a concentration of 500 nM. The dissociation is monitored for 120 sec. Bulk refractive index differences are corrected for by subtracting the response obtained in a reference flow cell, where no protein is immobilized.

[2] = biological target: T1, human OX40 on the cell surface …; test: cell-based or functional assay
[3] = biological target: T1, human OX40 on the cell surface …; test: cell-based or functional assay; remark: listed apart in the source
[4] = biological target: T1, human OX40 on the cell surface …; test: cell-based or functional assay; remark: listed apart in the source
[5] = biological target: T1, human OX40 on the cell surface …; test: cell-based or functional assay; remark: listed apart in the source
[6] = biological target: T2, human fibroblast activation protein (huFAP) on NIH/3T3-huFAP clone 19 cells (human, UniProt Q12884 1-760); test: flow cytometry, NIH/3T3-huFAP clone 19 cells
T2 construct: Mouse NIH/3T3 fibroblasts transfected with vector pETR4921 to express huFAP; also called cell surface FAP
Protocol: In another experiment, a mixture of 2 × 10⁵ NIH/3T3-huFAP clone 19 cells and HeLa cells in FACS buffer were added to each well of a round-bottom 96-well plates (TPP, Cat. No. 92097) and the binding assay was performed. Cells were first stained 20 min with LIVE/DEAD™ Fixable Aqua Dead Cell Stain (Molecular probes, Cat.No. L34957) in DPBS, followed after one washing step with 200 µL 4° C. […] Afterwards the cells were washed once with 200 µL FACS buffer at 4° C. and resuspended by a short vortex. Cells were further stained with 50 µL/well of 4° C. cold secondary antibody solution containing Phycoerythrin (PE)-conjugated AffiniPure anti-human IgG Fcy-fragment-specific goat IgG F(ab′)2 fragment (Jackson ImmunoResearch, Cat. No. 109-116-098) and incubated for 30 minutes at 4° C. in the dark. Samples were finally resuspended in 100 µL/well FACS-buffer and acquired the same day using with BD Fortessa running FACS Diva software.

[7] = biological target: T1, human OX40 on the cell surface …; test: flow cytometry, activated human PBMC gated on CD4+ T cells
[8] = biological target: T3, FcRn (biotinylated, coupled to streptavidin-sepharose); test: FcRn affinity chromatography; retention compared to protein standards with known affinities
T3 construct: also called neonatal Fc receptor
Protocol: For coupling, the prepared receptor was added to streptavidin-sepharose (GE Healthcare). The resulting FcRn-sepharose matrix was packed in a column housing. The column was equilibrated with 20 mM 2-(N-morpholine)-ethanesulfonic acid (MES) and 140 mM NaCl, pH 5.5 (eluent A) at a 0.5 ml/min flow rate. 30 µg of antibody samples were diluted at a volume ratio of 1: 1 with eluent A and applied to the FcRn column. The column was washed with 5 column volumes of eluent A followed by elution with a linear gradient from 20 to 100% 20 mM Tris/HCl and 140 mM NaCl, pH 8.8 (eluent B) in 35 column volumes. The analysis was performed with a column oven at 25° C. The elution profile was monitored by continuous measurement of the absorbance at 280 nm. Retention times were compared to protein standards with known affinities.

T3 sequence (P55899 24-297, chain 1 of 2): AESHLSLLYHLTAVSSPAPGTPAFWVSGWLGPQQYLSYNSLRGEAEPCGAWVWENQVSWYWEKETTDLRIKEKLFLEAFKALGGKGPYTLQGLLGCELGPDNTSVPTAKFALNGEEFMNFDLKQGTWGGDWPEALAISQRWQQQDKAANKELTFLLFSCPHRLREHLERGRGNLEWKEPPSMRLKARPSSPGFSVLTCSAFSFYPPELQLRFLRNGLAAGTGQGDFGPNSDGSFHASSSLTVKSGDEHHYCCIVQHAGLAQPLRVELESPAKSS
T3 sequence (P61769 21-119, chain 2 of 2, further chain): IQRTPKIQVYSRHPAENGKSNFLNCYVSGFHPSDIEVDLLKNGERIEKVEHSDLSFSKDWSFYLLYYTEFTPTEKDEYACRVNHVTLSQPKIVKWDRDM

| Binder | binding result [1] | EC50 of NFκB activation (luciferase), HeLa_hOx40_NFkB_Luc1, w/ hu FAP [2] | EC50 of NFκB activation (luciferase), HeLa_hOx40_NFkB_Luc1, w/o [2] | EC50 of CD25 upregulation on CD4+ T cells, suboptimal TCR stimulation of human PBMC with NIH/3T3-huFAP cells [3] | EC50 of increased TCB mediated cytokine secretion following FAP-OX40 costimulation of primary human PBMCs [4] | EC50 of suppression of FoxP3 induction (FoxP3 MFI) on TGFβ-exposed CD4 T cells, FAP-coated beads [5] | EC50 [6] | EC50 [7] | FcRn affinity [8] |
| --- | --- | --- | --- | --- | --- | --- | --- | --- | --- |
| B1 | binds | – | – | – | – | – | – | – | – |
| B2 | binds | – | – | – | – | – | – | – | – |
| B3 | – | 0.2 nM | 0.8 nM | 0.003 nM | 0.058 nM | 0.25 nM | 1.71 nM | 1.47 nM | -0.1 |
| B4 | – | 0.2 nM | 1.9 nM | 0.001 nM | 0.144 nM | 0.11 nM | 1.22 nM | 1.64 nM | -0.1 |
